Results: the supplement of paper PMC10567573

B1: SOAT1 (parent)
chain: PSNGRIDIKQLIAKKIKLTAEAEE

Variants of: B1
Assay: protein stability index of a GFP-peptide fusion (GPS, HEK-293T) (PSI 1-6); higher = more stable
Conditions: c terminus: a fixed tail appended
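Further: lentivirally expressed fusions sorted by FACS into six bins by GFP to DsRed ratio, PSI derived from sequencing read proportions per bin multiplied by bin number.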

| Variant | protein stability index |
| --- | --- |
| PSNGRIDIKQLIAPKIKLTAEAEE [K14P] | 4.38 |
| PSNGRIDIKQLIAYKIKLTAEAEE [K14Y] | 2.62 |
| PSNGRIDIKQLIADKIKLTAEAEE [K14D] | 3.96 |
| PSNGRIDIKQLIAFKIKLTAEAEE [K14F] | 2.63 |
| PSNGRIDIKQLIALKIKLTAEAEE [K14L] | 2.24 |
| PSNGRIDIKQLIAHKIKLTAEAEE [K14H] | 3.46 |
| PSNGRIDIKQLIARKIKLTAEAEE [K14R] | 3.22 |
| PSNGRIDIKQLIAVKIKLTAEAEE [K14V] | 2.98 |
| PSNGRIDIKQLIATKIKLTAEAEE [K14T] | 3.34 |
| PSNGRIDIKQLIAMKIKLTAEAEE [K14M] | 2.96 |
| PSNGRIDIKQLIAAKIKLTAEAEE [K14A] | 2.88 |
| PSNGRIDIKQLIANKIKLTAEAEE [K14N] | 3.59 |
| PSNGRIDIKQLIACKIKLTAEAEE [K14C] | 3.37 |
| PSNGRIDIKQLIAEKIKLTAEAEE [K14E] | 4.04 |
| PSNGRIDIKQLIASKIKLTAEAEE [K14S] | 3.84 |
| PSNGRIDIKQLIAGKIKLTAEAEE [K14G] | 3.63 |
| PSNGRIDIKQLIAQKIKLTAEAEE [K14Q] | 3.22 |
| PSNGRIDIKQLIAWKIKLTAEAEE [K14W] | 3.07 |
| PSNGRIDIKQLIAIKIKLTAEAEE [K14I] | 2.71 |
| PSNGRIDIKQLIAKKDKLTAEAEE [I16D] | 4.42 |
| PSNGRIDIKQLIAKKNKLTAEAEE [I16N] | 4.02 |
| PSNGRIDIKQLIAKKWKLTAEAEE [I16W] | 3.18 |
| PSNGRIDIKQLIAKKTKLTAEAEE [I16T] | 4.1 |
| PSNGRIDIKQLIAKKAKLTAEAEE [I16A] | 4.04 |

| Variant | protein stability index |
| --- | --- |
| PSNGRIDIKQLIAKKMKLTAEAEE [I16M] | 3.51 |
| PSNGRIDIKQLIAKKGKLTAEAEE [I16G] | 4.5 |
| PSNGRIDIKQLIAKKVKLTAEAEE [I16V] | 3.75 |
| PSNGRIDIKQLIAKKSKLTAEAEE [I16S] | 3.9 |
| PSNGRIDIKQLIAKKCKLTAEAEE [I16C] | 3.31 |
| PSNGRIDIKQLIAKKFKLTAEAEE [I16F] | 2.97 |
| PSNGRIDIKQLIAKKHKLTAEAEE [I16H] | 3.78 |
| PSNGRIDIKQLIAKKRKLTAEAEE [I16R] | 3.65 |
| PSNGRIDIKQLIAKKYKLTAEAEE [I16Y] | 3.16 |
| PSNGRIDIKQLIAKKKKLTAEAEE [I16K] | 4.01 |
| PSNGRIDIKQLIAKKPKLTAEAEE [I16P] | 3.81 |
| PSNGRIDIKQLIAKKEKLTAEAEE [I16E] | 4.45 |
| PSNGRIDIKQLIAKKQKLTAEAEE [I16Q] | 3.52 |
| PSNGRIDIKQLIAKKLKLTAEAEE [I16L] | 3.22 |
| PSNGRIDIFQLIAKKIKLTAEAEE [K9F] | 2.06 |
| PSNGRIDIHQLIAKKIKLTAEAEE [K9H] | 3.07 |
| PSNGRIDIEQLIAKKIKLTAEAEE [K9E] | 4.03 |
| PSNGRIDIWQLIAKKIKLTAEAEE [K9W] | 2.02 |
| PSNGRIDIPQLIAKKIKLTAEAEE [K9P] | 3.69 |
| PSNGRIDICQLIAKKIKLTAEAEE [K9C] | 3.25 |
| PSNGRIDIIQLIAKKIKLTAEAEE [K9I] | 2.29 |
| PSNGRIDITQLIAKKIKLTAEAEE [K9T] | 3.23 |
| PSNGRIDIRQLIAKKIKLTAEAEE [K9R] | 2.74 |
| PSNGRIDILQLIAKKIKLTAEAEE [K9L] | 2.77 |

| Variant | protein stability index |
| --- | --- |
| PSNGRIDIAQLIAKKIKLTAEAEE [K9A] | 3.04 |
| PSNGRIDINQLIAKKIKLTAEAEE [K9N] | 3.66 |
| PSNGRIDIGQLIAKKIKLTAEAEE [K9G] | 3.39 |
| PSNGRIDIMQLIAKKIKLTAEAEE [K9M] | 2.99 |
| PSNGRIDISQLIAKKIKLTAEAEE [K9S] | 3.28 |
| PSNGRIDIVQLIAKKIKLTAEAEE [K9V] | 2.9 |
| PSNGRIDIQQLIAKKIKLTAEAEE [K9Q] | 3.47 |
| PSNGRIDIYQLIAKKIKLTAEAEE [K9Y] | 3.03 |
| PSNGRIDIDQLIAKKIKLTAEAEE [K9D] | 3.87 |
| PSNGRIDIKQLIPKKIKLTAEAEE [A13P] | 3.94 |
| PSNGRIDIKQLIVKKIKLTAEAEE [A13V] | 2.84 |
| PSNGRIDIKQLIHKKIKLTAEAEE [A13H] | 3.41 |
| PSNGRIDIKQLIMKKIKLTAEAEE [A13M] | 3.12 |
| PSNGRIDIKQLINKKIKLTAEAEE [A13N] | 3.35 |
| PSNGRIDIKQLIFKKIKLTAEAEE [A13F] | 2.94 |
| PSNGRIDIKQLILKKIKLTAEAEE [A13L] | 3.13 |
| PSNGRIDIKQLIEKKIKLTAEAEE [A13E] | 3.56 |
| PSNGRIDIKQLIIKKIKLTAEAEE [A13I] | 3.3 |
| PSNGRIDIKQLICKKIKLTAEAEE [A13C] | 2.82 |
| PSNGRIDIKQLIQKKIKLTAEAEE [A13Q] | 3.47 |
| PSNGRIDIKQLITKKIKLTAEAEE [A13T] | 3.08 |
| PSNGRIDIKQLIWKKIKLTAEAEE [A13W] | 2.83 |
| PSNGRIDIKQLIRKKIKLTAEAEE [A13R] | 3.57 |
| PSNGRIDIKQLIKKKIKLTAEAEE [A13K] | 3.48 |

| Variant | protein stability index |
| --- | --- |
| PSNGRIDIKQLISKKIKLTAEAEE [A13S] | 3.36 |
| PSNGRIDIKQLIDKKIKLTAEAEE [A13D] | 4.08 |
| PSNGRIDIKQLIYKKIKLTAEAEE [A13Y] | 2.97 |
| PSNGRIDIKQLIGKKIKLTAEAEE [A13G] | 3.54 |
| PSNGRIDIKQLIAKKIALTAEAEE [K17A] | 3.67 |
| PSNGRIDIKQLIAKKIGLTAEAEE [K17G] | 3.55 |
| PSNGRIDIKQLIAKKIELTAEAEE [K17E] | 3.62 |
| PSNGRIDIKQLIAKKICLTAEAEE [K17C] | 3.05 |
| PSNGRIDIKQLIAKKILLTAEAEE [K17L] | 3.12 |
| PSNGRIDIKQLIAKKIQLTAEAEE [K17Q] | 3.5 |
| PSNGRIDIKQLIAKKIILTAEAEE [K17I] | 2.84 |
| PSNGRIDIKQLIAKKIDLTAEAEE [K17D] | 4.01 |
| PSNGRIDIKQLIAKKIPLTAEAEE [K17P] | 3.84 |
| PSNGRIDIKQLIAKKIMLTAEAEE [K17M] | 3.1 |
| PSNGRIDIKQLIAKKIHLTAEAEE [K17H] | 3.02 |
| PSNGRIDIKQLIAKKINLTAEAEE [K17N] | 3.61 |
| PSNGRIDIKQLIAKKIFLTAEAEE [K17F] | 3.15 |
| PSNGRIDFKQLIAKKIKLTAEAEE [I8F] | 3.54 |
| PSNGRIDYKQLIAKKIKLTAEAEE [I8Y] | 4.13 |
| PSNGRIDHKQLIAKKIKLTAEAEE [I8H] | 3.12 |
| PSNGRIDGKQLIAKKIKLTAEAEE [I8G] | 3.89 |
| PSNGRIDRKQLIAKKIKLTAEAEE [I8R] | 4.06 |
